Test results reported in article PMC2756588.

T1: Cyk3, Q07533
T1 sequence (Q07533 1-83, looked up): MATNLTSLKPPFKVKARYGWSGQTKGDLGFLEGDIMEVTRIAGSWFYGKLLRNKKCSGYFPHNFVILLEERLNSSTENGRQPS

T2: Fus1, P11710
T2 sequence (P11710 432-512, looked up): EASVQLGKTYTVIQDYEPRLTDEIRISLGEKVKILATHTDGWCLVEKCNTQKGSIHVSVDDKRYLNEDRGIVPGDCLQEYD

T3: Sla1-2, P32790
T3 sequence (P32790 60-140, looked up): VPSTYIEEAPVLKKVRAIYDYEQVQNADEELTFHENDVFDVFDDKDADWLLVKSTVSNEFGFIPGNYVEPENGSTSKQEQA

T4: Nbp2, Q12163
T4 sequence (Q12163 103-180, looked up): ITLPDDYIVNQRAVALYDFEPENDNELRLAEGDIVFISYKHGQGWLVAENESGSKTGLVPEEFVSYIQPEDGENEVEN

T5: Cdc25, P04821
T5 sequence (P04821 50-136, looked up): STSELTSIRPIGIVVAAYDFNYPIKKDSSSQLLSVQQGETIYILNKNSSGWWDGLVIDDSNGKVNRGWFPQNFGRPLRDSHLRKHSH

T6: Boi1, P38041
T6 sequence (P38041 1-86, looked up): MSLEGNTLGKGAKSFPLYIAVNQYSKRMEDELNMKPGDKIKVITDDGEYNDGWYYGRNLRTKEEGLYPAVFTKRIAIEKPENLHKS

T7: Boi2, P39969
T7 sequence (P39969 32-116, looked up): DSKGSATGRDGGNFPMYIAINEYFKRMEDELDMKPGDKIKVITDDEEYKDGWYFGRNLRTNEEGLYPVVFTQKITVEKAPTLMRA

T8: Pex13, P80667
T8 sequence (P80667 295-386, looked up): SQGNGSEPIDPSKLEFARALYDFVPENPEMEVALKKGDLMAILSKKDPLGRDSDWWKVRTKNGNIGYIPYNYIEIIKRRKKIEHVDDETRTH

T9: Bud14, P27637
T9 sequence (P27637 247-328, looked up): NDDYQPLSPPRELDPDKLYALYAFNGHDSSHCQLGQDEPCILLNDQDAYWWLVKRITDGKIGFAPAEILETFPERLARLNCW

T10: Hse1, P38753
T10 sequence (P38753 208-285, looked up): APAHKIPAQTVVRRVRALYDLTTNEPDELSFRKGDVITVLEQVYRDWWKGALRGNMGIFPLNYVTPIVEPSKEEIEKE

T11: Sla1-3, P32790
T11 sequence (P32790 344-424, looked up): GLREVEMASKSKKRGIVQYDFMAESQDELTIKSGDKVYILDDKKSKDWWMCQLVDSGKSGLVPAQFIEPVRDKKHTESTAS

T12: Myo5, Q04439
T12 sequence (Q04439 1072-1160, looked up): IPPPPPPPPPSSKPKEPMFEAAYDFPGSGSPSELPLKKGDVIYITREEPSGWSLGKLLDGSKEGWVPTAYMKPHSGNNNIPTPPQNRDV

T13: Abp1, P15891
T13 sequence (P15891 535-592, looked up): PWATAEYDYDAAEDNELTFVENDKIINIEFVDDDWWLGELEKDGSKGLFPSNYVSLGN

T14: Bzz1-1, P38822
T14 sequence (P38822 478-572, looked up): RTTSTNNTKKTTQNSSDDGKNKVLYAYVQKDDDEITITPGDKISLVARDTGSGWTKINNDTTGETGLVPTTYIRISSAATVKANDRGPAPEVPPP

T15: Lsb3, P43603
T15 sequence (P43603 385-451, looked up): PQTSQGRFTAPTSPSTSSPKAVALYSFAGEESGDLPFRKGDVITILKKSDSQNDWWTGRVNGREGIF

T16: Pin3, Q06449
T16 sequence (Q06449 53-122, looked up): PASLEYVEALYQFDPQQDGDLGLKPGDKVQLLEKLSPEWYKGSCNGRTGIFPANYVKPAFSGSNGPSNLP

T17: Lsb1, P53281
T17 sequence (P53281 45-122, looked up): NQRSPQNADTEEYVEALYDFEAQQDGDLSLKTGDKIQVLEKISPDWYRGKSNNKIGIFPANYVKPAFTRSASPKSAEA

T18: Lsb4, P32793
T18 sequence (P32793 402-468, looked up): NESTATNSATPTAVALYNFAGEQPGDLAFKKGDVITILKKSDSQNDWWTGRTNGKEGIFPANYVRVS

T19: Bzz1-2, P38822
T19 sequence (P38822 568-633, looked up): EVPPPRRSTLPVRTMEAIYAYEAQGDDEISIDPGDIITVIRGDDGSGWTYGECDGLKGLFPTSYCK

T20: Hof1, Q05080
T20 sequence (Q05080 590-669, looked up): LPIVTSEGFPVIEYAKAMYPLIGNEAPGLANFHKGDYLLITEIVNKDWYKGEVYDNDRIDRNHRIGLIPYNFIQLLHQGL

T21: Bbc1, P47068
T21 sequence (P47068 1-78, looked up): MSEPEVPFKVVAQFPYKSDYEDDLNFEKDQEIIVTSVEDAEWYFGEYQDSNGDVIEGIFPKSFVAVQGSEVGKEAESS


target: T1, Cyk3, Q07533; assay: SPOT array; settings: median of control spots 1451

SPOT intensity	Binder
4	GQYRRTIVIPRRFFT
4	SKAKRPKFLLDLQIK
0	TKFRISLGLPVGAIM

target: T2, Fus1, P11710; assay: SPOT array; settings: median of control spots 1200

SPOT intensity	Binder
48	GQYRRTIVIPRRFFT
3	SKAKRPKFLLDLQIK
32	TKFRISLGLPVGAIM

target: T3, Sla1-2, P32790; assay: SPOT array; settings: median of control spots 712

SPOT intensity	Binder
8	GQYRRTIVIPRRFFT
2	SKAKRPKFLLDLQIK
9	TKFRISLGLPVGAIM

target: Bem1-2, P29366; assay: SPOT array; settings: median of control spots 4347
Sequence (P29366 139-227): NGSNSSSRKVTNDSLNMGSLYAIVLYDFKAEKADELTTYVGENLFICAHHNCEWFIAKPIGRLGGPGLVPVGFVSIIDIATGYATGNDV

SPOT intensity	Binder
17	GQYRRTIVIPRRFFT
0	SKAKRPKFLLDLQIK
0	TKFRISLGLPVGAIM

target: T4, Nbp2, Q12163; assay: SPOT array; settings: median of control spots 357

SPOT intensity	Binder
120	GQYRRTIVIPRRFFT
0	SKAKRPKFLLDLQIK
159	TKFRISLGLPVGAIM

target: T5, Cdc25, P04821; assay: SPOT array; settings: median of control spots 969

SPOT intensity	Binder
156	GQYRRTIVIPRRFFT
26	SKAKRPKFLLDLQIK
108	TKFRISLGLPVGAIM

target: T6, Boi1, P38041; assay: SPOT array; settings: median of control spots 1162

SPOT intensity	Binder
30	GQYRRTIVIPRRFFT
2	SKAKRPKFLLDLQIK
1	TKFRISLGLPVGAIM

target: Rvs167, P39743; assay: SPOT array; settings: median of control spots 2707
Sequence (P39743 419-482): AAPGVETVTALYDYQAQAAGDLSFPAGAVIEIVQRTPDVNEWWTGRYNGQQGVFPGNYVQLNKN

SPOT intensity	Binder
0	GQYRRTIVIPRRFFT
0	SKAKRPKFLLDLQIK
0	TKFRISLGLPVGAIM

target: T7, Boi2, P39969; assay: SPOT array; settings: median of control spots 1161

SPOT intensity	Binder
6	GQYRRTIVIPRRFFT
0	SKAKRPKFLLDLQIK
0	TKFRISLGLPVGAIM

target: T8, Pex13, P80667; assay: SPOT array; settings: median of control spots 1341

SPOT intensity	Binder
20	GQYRRTIVIPRRFFT
5	SKAKRPKFLLDLQIK
29	TKFRISLGLPVGAIM

target: T9, Bud14, P27637; assay: SPOT array; settings: median of control spots 956

SPOT intensity	Binder
13	GQYRRTIVIPRRFFT
6	SKAKRPKFLLDLQIK
6	TKFRISLGLPVGAIM

target: T10, Hse1, P38753; assay: SPOT array; settings: median of control spots 1727

SPOT intensity	Binder
11	GQYRRTIVIPRRFFT
2	SKAKRPKFLLDLQIK
8	TKFRISLGLPVGAIM

target: T11, Sla1-3, P32790; assay: SPOT array; settings: median of control spots 5475

SPOT intensity	Binder
58	GQYRRTIVIPRRFFT
19	SKAKRPKFLLDLQIK
3	TKFRISLGLPVGAIM

target: T12, Myo5, Q04439; assay: SPOT array; settings: median of control spots 471

SPOT intensity	Binder
2	GQYRRTIVIPRRFFT
0	SKAKRPKFLLDLQIK
14	TKFRISLGLPVGAIM

target: T13, Abp1, P15891; assay: SPOT array; settings: median of control spots 935

SPOT intensity	Binder
184	GQYRRTIVIPRRFFT
78	SKAKRPKFLLDLQIK
289	TKFRISLGLPVGAIM

target: GST; assay: SPOT array; settings: median of control spots 978

SPOT intensity	Binder
5	GQYRRTIVIPRRFFT
2	SKAKRPKFLLDLQIK
0	TKFRISLGLPVGAIM

target: Bem1-1, P29366; assay: SPOT array; settings: median of control spots 4282
Sequence (P29366 55-141): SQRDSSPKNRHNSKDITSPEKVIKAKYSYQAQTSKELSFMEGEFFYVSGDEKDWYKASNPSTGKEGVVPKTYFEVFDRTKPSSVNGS

SPOT intensity	Binder
0	GQYRRTIVIPRRFFT
0	SKAKRPKFLLDLQIK
0	TKFRISLGLPVGAIM

target: T14, Bzz1-1, P38822; assay: SPOT array; settings: median of control spots 4446

SPOT intensity	Binder
3	GQYRRTIVIPRRFFT
1	SKAKRPKFLLDLQIK
0	TKFRISLGLPVGAIM

target: T15, Lsb3, P43603; assay: SPOT array; settings: median of control spots 406

SPOT intensity	Binder
16	GQYRRTIVIPRRFFT
2	SKAKRPKFLLDLQIK
28	TKFRISLGLPVGAIM

target: T16, Pin3, Q06449; assay: SPOT array; settings: median of control spots 2171

SPOT intensity	Binder
18	GQYRRTIVIPRRFFT
4	SKAKRPKFLLDLQIK
65	TKFRISLGLPVGAIM

target: T17, Lsb1, P53281; assay: SPOT array; settings: median of control spots 388

SPOT intensity	Binder
19	GQYRRTIVIPRRFFT
7	SKAKRPKFLLDLQIK
44	TKFRISLGLPVGAIM

target: Sho1, P40073; assay: SPOT array; settings: median of control spots 1148
Sequence (P40073 287-367): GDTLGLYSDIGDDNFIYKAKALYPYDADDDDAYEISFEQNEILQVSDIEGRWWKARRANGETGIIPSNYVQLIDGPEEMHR

SPOT intensity	Binder
124	GQYRRTIVIPRRFFT
114	SKAKRPKFLLDLQIK
367	TKFRISLGLPVGAIM

target: T18, Lsb4, P32793; assay: SPOT array; settings: median of control spots 397

SPOT intensity	Binder
28	GQYRRTIVIPRRFFT
5	SKAKRPKFLLDLQIK
46	TKFRISLGLPVGAIM

target: Myo3, P36006; assay: SPOT array; settings: median of control spots 468

SPOT intensity	Binder
17	GQYRRTIVIPRRFFT
6	SKAKRPKFLLDLQIK
69	TKFRISLGLPVGAIM

target: T19, Bzz1-2, P38822; assay: SPOT array; settings: median of control spots 4538

SPOT intensity	Binder
0	GQYRRTIVIPRRFFT
1	SKAKRPKFLLDLQIK
2	TKFRISLGLPVGAIM

target: T20, Hof1, Q05080; assay: SPOT array; settings: median of control spots 4086

SPOT intensity	Binder
8	GQYRRTIVIPRRFFT
2	SKAKRPKFLLDLQIK
0	TKFRISLGLPVGAIM

target: T21, Bbc1, P47068; assay: SPOT array; settings: median of control spots 796

SPOT intensity	Binder
258	GQYRRTIVIPRRFFT
48	SKAKRPKFLLDLQIK
43	TKFRISLGLPVGAIM
